Assay results from the nanobody polyreactivity screen of Harvey et al. (2022).

Test: yeast display, Sf9 membrane polyspecificity reagent, FACS + sequencing; frameworks hold sequencing errors
In short: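 Nanobodies came from a synthetic yeast display library in Saccharomyces cerevisiae BJ5465, induced with galactose for 36–48 hours and stained for 1 hour at 4 °C with 10% biotinylated, detergent-solubilized Sf9 membrane reagent. Cells were enriched on streptavidin microbeads and then FACS-sorted, with low and high (top ~1%) gates set on anti-HA fluorescence for expression and streptavidin fluorescence for reagent binding. Each polyreactivity label reflects the gate a clone came from. Genes were amplified by colony PCR, sequenced by MiSeq 2 × 250 and filtered by CDR length.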
In the case of “QVQLVESGGGLVQAGGSLRLICAASGSTFFYNAMGWYRQAPGKEREFVAAIRWRGGSTYYADSVKGRFTISRDNAKNTVYLQMNSLKPEDTAVYYCAAVYYRWEYDYWGQGTQVTVSS”, the “polyreactivity (PSR sort gate)” value is reported as “high polyreactivity”. In the case of “QVQLVESGGGLVQAGGSLRLICAASGSTFGAYAMGWYRQAPGKERELVAAISRSGGTTYYADSVKGRFTISRDNSKNTVYLQMNSLKPEDTEVYYCAADWLNSVPYNYWGQGTLVTVSS”, the “polyreactivity (PSR sort gate)” value is reported as “low polyreactivity”. In the case of “QVQLVESGGGLVQAGGSLRLICAASGSTFGPNAMGWYRQAPGKEREFVASISWRGGRTYYADSVKGRFTISRDNAKNSVYLQMYCLKPEDTAVSYCAAVSYPAVYGFDYWGQGTQVTVSS”, the “polyreactivity (PSR sort gate)” value is reported as “high polyreactivity”. With “QVQLVESGGGLVQAGGSLRLICAASGSTFIKYTMGWYRPAPGKERELVAAISRIGGSTYYADSVKGRFTISRDNAKNTVYLQMNSLKPEDTAVYYCAAPYPIGHDWGQGTQVTVSS” the “polyreactivity (PSR sort gate)” value was “low polyreactivity”. In the case of “QVQLVESGGGLVQAGGSLRLICAASGSTFLKYTMVWYRQAPWKERELVAAISKSGGSTYYADSVKGRFTISRDHAKNTVYLQMNSLKPEDTAVYYCAKVRSWVSSYGYGYWGQGTQVTVSS”, the “polyreactivity (PSR sort gate)” value is reported as “high polyreactivity”. For “QVQLVESGGGLVQAGGSLRLICAASGSTFLSNAMGWYRQATGKERELVAAITTSGTSTFYSDSVKGRFTISRDNAKNTVYLQMNSMKPEDTAVYYCAADSAHRYIPVQGYDYWGQGTQVTVSS”, the “polyreactivity (PSR sort gate)” value was “low polyreactivity”. For “QVQLVESGGGLVQAGGSLRLICAASGSTFNDYVMGWYRQAPGKERELVAAISRSGGSTYYADSVKGRITISRDNAKNTVYLQMNSLKPEDTAVYYCAAASPGPWRYDYWGQGTQVTVSS”, the “polyreactivity (PSR sort gate)” value was “high polyreactivity”. For “QVQLVESGGGLVQAGGSLRLICAASGSTFPGYAMGWYRQAPGKERELVATITRRGGSTYYADSVKGRFTISRDNAKNTVYLQMNSLKPEDTAVYYCNAVDYTVWLFPYDTGVDYWGQGTQVTVSS”, the “polyreactivity (PSR sort gate)” value was “low polyreactivity”. In the case of “QVQLVESGGGLVQAGGSLRLICAASGSTFSDNAMGWYRPAPGKERELVAAISRSGGSTYYADSVKGRFTLSRDNANNTVYLQMNSLKPEDTAFYYGATKSVLTGYDSWGQGTKVTVSS”, the “polyreactivity (PSR sort gate)” value is reported as “high polyreactivity”. For “QVQLVESGGGLVQAGGSLRLICAASGSTFTPNDMGWYRQAPGKERELVADISNYADSVKGRFTISRDNAKNTVYLQMNSLKPEDSAVYYCAAEWGGDRYGLYVVSWWYDYWGQGTQVTLSS”, the “polyreactivity (PSR sort gate)” value was “low polyreactivity”. With “QVQLVESGGGLVQAGGSLRLICAASGSTFTPYAMGWYRQEPGKERELVAAIRGSGGRTYYADSVKGRFTISRDNAKNTVYLQMNSLKPEDTAVYYCAASWLYTGWGRYDYWGQGTQVTVSS” the “polyreactivity (PSR sort gate)” value was “high polyreactivity”. For “QVQLVESGGGLVQAGGSLRLICAASGSTFVEYAMGWYRQAPGKERELVATISYRGTRTYYADSVKGRFTISRDNAKNTVYLQMNSLKPEDTAVYYCAARSWFRTVEYDYWGKGTQVTVSS”, the “polyreactivity (PSR sort gate)” value was “high polyreactivity”. In the case of “QVQLVESGGGLVQAGGSLRLICAASGSTFWWYAMGWYRKAPGKEREFVAAIRWSSGSTYYADSVKGRFTISRDNAKNTVYLQMNSLKPEDTAVYYCATDDTSNVYVDLDYWGQGTQVTVSS”, the “polyreactivity (PSR sort gate)” value is reported as “high polyreactivity”. In the case of “QVQLVESGGGLVQAGGSLRLICAASGSTFYHNVMGWYRQAPGKERELLASIYRGGSTYYADSVKGRFTISRDNAKNTVYVQMNSLKPEDTAVYYCAADLSSDSSYSGYDYSGQGTQVTVSS”, the “polyreactivity (PSR sort gate)” value is reported as “low polyreactivity”. In the case of “QVQLVESGGGLVQAGGSLRLICAASGSTFYIYAMGWYRQAPGKERELGATISSTGSTHYADSVKGRFTISRDNAKNTVYLQMNSLKPEDTAVYYCNRVYFGRYSRRDHWGQGTQVTVSS”, the “polyreactivity (PSR sort gate)” value is reported as “high polyreactivity”. For “QVQLVESGGGLVQAGGSLRLICAASGSTFYSYTMGWYRPAPGKERELVARISSSGSTNYADSVKGRFTISRYNAKNTVYLQMNSLKPEDTAVYYCNKDWFYRGYDYWGQGTQVTVSS”, the “polyreactivity (PSR sort gate)” value was “high polyreactivity”. With “QVQLVESGGGLVQAGGSLRLICAASGSTFYTYAMGWYRQAPGKEREFVAAIRWRGGSTYYADSVKGRFTISRDNSKNTVFLQMNSLKPEDTAVYYCAAVSPGTVTNGKSRDYWGQGTQVTVSS” the “polyreactivity (PSR sort gate)” value was “high polyreactivity”. For “QVQLVESGGGLVQAGGSLRLICAASGSTFYYYTRVWYRQAPGKERELVAAISYGGSSTYYADSVKGRFTISRDNAKNSVYLQMNSLKPEDTAVYYCAAEYDWSYWLSYDYWGQGTLVTVSS”, the “polyreactivity (PSR sort gate)” value was “low polyreactivity”. With “QVQLVESGGGLVQAGGSLRLICAASGSTLKYYAMGWYRQAPGKERELVARITRSSGSTYYADSVKGRFTISRDNAKNTVYLQMNSLKPEDTAVYYCNAYGRFGLYDYWGQGTQVTVSS” the “polyreactivity (PSR sort gate)” value was “high polyreactivity”. In the case of “QVQLVESGGGLVQAGGSLRLICAASGSTLVVNAMGWYRQAPGKERELVAAITSGGSTNYADSVKGRFTISRDNAKNTVYLQMNSLKPEDTAVYYCNAERGRSFWWAYDYWGQGTQVTVSS”, the “polyreactivity (PSR sort gate)” value is reported as “low polyreactivity”. For “QVQLVESGGGLVQAGGSLRLICAASGTIFDIYAMGWYRQAPGKERELVAAISLSAGSTYYADSVKGRFTISRDNAKNTVYLQMNSLKPEDTAGYYFNADGWYGYWGQGTQVTVSS”, the “polyreactivity (PSR sort gate)” value was “low polyreactivity”. In the case of “QVQLVESGGGLVQAGGSLRLICAASGTIFITNAMGWYRPAPGKERELVAAISGRGGSTYYADSVKGRFTISRDNAKNTVYLQMNSLKPEDTAVYYCNAYSYRVSGYDYWGQGTQVTVSS”, the “polyreactivity (PSR sort gate)” value is reported as “high polyreactivity”. In the case of “QVQLVESGGGLVQAGGSLRLICAASGYIFAYNTMGWYRQAPGKERELVAAISRSGGSTYYADSVKGRFTISRDNAKNTVYLQMNSLKPEDTAVYSCAARYAPLDFRFDYWGQGTQVTVSS”, the “polyreactivity (PSR sort gate)” value is reported as “high polyreactivity”. For “QVQLVESGGGLVQAGGSLRLICAASGYTFAFYAMGWYRQAPGKEREFVASINWNGSSTYADSVKGRFTISRDNAKNTVYLQMNSLKPEDTAVYYCNADYNRNSVQFSLYDYWGQGTQVTVSS”, the “polyreactivity (PSR sort gate)” value was “low polyreactivity”. In the case of “QVQLVESGGGLVQAGGSLRLICAASGYTFGHYVMGWYRQAPGKERELGAAISRGGGSTSYADSVKGRFTISRDNAKNTVYLQMNSLKPEDTAVYYCAKKSTYFKWSRMYWGQGTQVTVSS”, the “polyreactivity (PSR sort gate)” value is reported as “high polyreactivity”. In the case of “QVQLVESGGGLVQAGGSLRLICAASGYTFGYYAMGWYRQAPGKERELVAAISWRGARTNYADSVEGRFTISRDNAKNTVYLQMNSLKPEDTAVYYCAARGGYYQGRYKYGYWGQGTQVTVSS”, the “polyreactivity (PSR sort gate)” value is reported as “high polyreactivity”. For “QVQLVESGGGLVQAGGSLRLICAASGYTFPYNVMGWYRQAQGKERELVAAITSSGGSTYYADSVKGRFTISRDNAKTTVYLQMNSLKPEDTAVYYCNASPSSSLFDYLGQGTQVTVSS”, the “polyreactivity (PSR sort gate)” value was “low polyreactivity”. With “QVQLVESGGGLVQAGGSLRLICAASRSNFFPYAMGWYRQAPGKERELVDTISGSTGRTYYADSVKGRFTISRDNAKNTVYLQMNSLKPQDTAVYYCATSVGYYLAPIKYDYWGQRTQVTVSS” the “polyreactivity (PSR sort gate)” value was “low polyreactivity”. For “QVQLVESGGGLVQAGGSLRLICAASVSTFRDHAMGWYRQAPAKERDLVAAIDIDSSTYYADSVKGRFTISLDNAKNSVYLHMNSLKPEDTAVYYCNKDASGGTTTEVDYWGQGTQVTVSS”, the “polyreactivity (PSR sort gate)” value was “low polyreactivity”. In the case of “QVQLVESGGGLVQAGGSLRLICAATGLIFPLYDMGWYRQAAGKERELVAAITLGGGGTYYADSVKGRFTISRDNAKNTVYLQMNSLKPEDTAVYYCNADYDIAAQLRTYITFDYWGQGTQVTVSS”, the “polyreactivity (PSR sort gate)” value is reported as “low polyreactivity”. In the case of “QVQLVESGGGLVQAGGSLRLICASSGSILRYNTMVWYRQAPGKERELVAAITYRGGSTYYADSVKGRFTISRDNAKNTVYLQMNSLKPEDTAVYYCNAARWWKTPDDYWGQGNQVTVSS”, the “polyreactivity (PSR sort gate)” value is reported as “high polyreactivity”. For “QVQLVESGGGLVQAGGSLRLICDASGFTFSPNAMGWYRQAPGKERELVAAIDWSGDRTYYADSVKGRFTISRDNAKNTVYLQMNSLKPEDTAVYYCNDVRRSPGDYSYYYWGQGTQVTVSS”, the “polyreactivity (PSR sort gate)” value was “low polyreactivity”. For “QVQLVESGGGLVQAGGSLRLICDASGSTFYRYAMGWYRQAPGKERELVAAISRSGGRTYYADSVKGRFTISRDNAKNTVYLQMNSLKPEDTADYYCAADVGPKQDATHDYWGQGTQLTVSS”, the “polyreactivity (PSR sort gate)” value was “high polyreactivity”. With “QVQLVESGGGLVQAGGSLRLICPASGRIFRYYAMGWYRQARGKERELVAGITTGGGSTYYADSVKGRFTISRDNAKNTVFLQMNSLKPEDTAVYYCAARYYTTYYCGQGTQVTVSS” the “polyreactivity (PSR sort gate)” value was “high polyreactivity”. With “QVQLVESGGGLVQAGGSLRLICVASGRIFLTYAMGWYRQAPGKERELVAAISYSGASTYYADSVKGRFTISRDNAKNTVYLQMNSLKPEDTAVYYCAKDGTQYERQDPAYGYWGQGTQVTVSS” the “polyreactivity (PSR sort gate)” value was “high polyreactivity”. For “QVQLVESGGGLVQAGGSLRLISAASGRTFWTNAMGWYRQAPGKEREFVAAISWRGASTFYADSVKGRFTISRDNAKNTVYLQMNSLKPEDTAVYYCAAQSRTRSFYGKYDSWGQGTQVTVSS”, the “polyreactivity (PSR sort gate)” value was “low polyreactivity”. In the case of “QVQLVESGGGLVQAGGSLRLISAASGRTFYSYAMGWYRQATGKERELVASISSGGGTNYADSVKGRFTSSRDNAMNTVYLQMNSLKPEDTAVYYGAAKYWFFYPYDYWGQGTQVTVSS”, the “polyreactivity (PSR sort gate)” value is reported as “low polyreactivity”. In the case of “QVQLVESGGGLVQAGGSLRLISAASGSIFVGNAMGWYRQSPGKERELVAAISRSGGRTYYADSVKGRFTISRDNAKNTVYLQMNSLKPEDTAVYYCNAYGWEQRQMDSWGQGTQVTVSS”, the “polyreactivity (PSR sort gate)” value is reported as “high polyreactivity”. For “QVQLVESGGGLVQAGGSLRLNCAASGITYTQYAMGWYRQAPGKERELVAAISKRGGRTYYADSVKGRFTISRDNAKNTVYLQMNCLIPEDTAVYYCATVPYGEVDYWGQGTQVTVSS”, the “polyreactivity (PSR sort gate)” value was “high polyreactivity”. For “QVQLVESGGGLVQAGGSLRLNCAASGSTFARNAMGWYRQAAGKERELVAAISGSGGSTYYADSVKGRFTISRDNAKNTVYLQMNSLKPEDTAVYYCAAARRYYAYRYDYWGQGTQVTVSS”, the “polyreactivity (PSR sort gate)” value was “high polyreactivity”. With “QVQLVESGGGLVQAGGSLRLNCAASGSTFPKYAMGWYRQAPGKERELVAAISWSGDSTYYADSVKGRFTISRDNAKNSVYLKMNRLKPEDTAFYYCAAYNFIHAGPWVYEYWGQCTQVTVSS” the “polyreactivity (PSR sort gate)” value was “low polyreactivity”.
